Source: the RNAGym collection of RNA variant scans (doi:10.1073/pnas.2313332121)

B1: TPR t1 (parent)
chain: GACCAAUCUGCCCUCAGAGCUCGAGAACAUCUUCGGAUGCAGAGGAGGCAGGCUUCGGUGGCGCGAUAGCGCCAACGUCCUCAACCUCCAAUGCAUCCCACCACAUGAUGAUGCCUGAAGAGCCUUGGUUUUUUG

Variants of: B1
Assay: polymerase ribozyme fitness, log enrichment relative to wild type (log ratio); higher = more active; in vitro selection for triplet polymerase activity
In short: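 Mutant libraries for each subunit of a heterodimeric triplet polymerase ribozyme were made by PCR and then transcribed. Each library underwent one round of in vitro selection in triplicate: annealing with a biotinylated primer, the partner subunit and triplets, frozen incubation at −7 °C, gel excision of extended constructs, streptavidin-bead capture and RT-PCR. Input and output libraries were Illumina-sequenced, and only genotypes with ≥10 input reads and ≥1 read per output were kept. Fitness is the logarithm, base 2, of genotype enrichment over wild-type enrichment, computed from inverse-variance-weighted replicate averages.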

**Q.** With G10A G19C G63C U112G U133G as the variant, how does the “polymerase ribozyme fitness (log ratio)” value read?
**A.** -5.97

**Q.** With G10C A18C C20U C56U as the variant, how does the “polymerase ribozyme fitness (log ratio)” value read?
**A.** -3.11

**Q.** For G10C U14A G48A G110A, which “polymerase ribozyme fitness (log ratio)” value is on record?
**A.** -3.91

**Q.** With G10A G19A C70A U96A C104U as the variant, how does the “polymerase ribozyme fitness (log ratio)” value read?
**A.** -6.15

**Q.** With G10C G71A U81C A100U as the variant, how does the “polymerase ribozyme fitness (log ratio)” value read?
**A.** -3.62

**Q.** Which “polymerase ribozyme fitness (log ratio)” value does the source give for G10U G51A G61U A100C G113A G120A here?
**A.** -4.29

**Q.** For G10A G69U G93A G110A A121U U132C, which “polymerase ribozyme fitness (log ratio)” value is on record?
**A.** 0.47

**Q.** For G10A U33C A90G A118G, which “polymerase ribozyme fitness (log ratio)” value is on record?
**A.** -6.66

**Q.** Which “polymerase ribozyme fitness (log ratio)” value does the source give for G10A U55G G69C here?
**A.** -1.36

**Q.** For G10A G19A C114U U133G, which “polymerase ribozyme fitness (log ratio)” value is on record?
**A.** 0.465

**Q.** Which “polymerase ribozyme fitness (log ratio)” value does the source give for G10A G93A here?
**A.** 0.205

**Q.** With G10U C13A C72U U109A as the variant, how does the “polymerase ribozyme fitness (log ratio)” value read?
**A.** -6.62

**Q.** Which “polymerase ribozyme fitness (log ratio)” value does the source give for G10C G63U here?
**A.** -2.32

**Q.** For G10C C15U C53U C123A, which “polymerase ribozyme fitness (log ratio)” value is on record?
**A.** 0.897

**Q.** For G10A C86A, which “polymerase ribozyme fitness (log ratio)” value is on record?
**A.** -0.0637

**Q.** Which “polymerase ribozyme fitness (log ratio)” value does the source give for C11A here?
**A.** -1.27

**Q.** With G10U U109A as the variant, how does the “polymerase ribozyme fitness (log ratio)” value read?
**A.** -4.67

**Q.** For G10C G110C, which “polymerase ribozyme fitness (log ratio)” value is on record?
**A.** -6.69

**Q.** With G10U C31G G39C C64U G110A G113U as the variant, how does the “polymerase ribozyme fitness (log ratio)” value read?
**A.** -6.42

**Q.** Which “polymerase ribozyme fitness (log ratio)” value does the source give for G10C A74G here?
**A.** -1.26

**Q.** For G10C G61U U109C, which “polymerase ribozyme fitness (log ratio)” value is on record?
**A.** -5.18

**Q.** Which “polymerase ribozyme fitness (log ratio)” value does the source give for G10U C62U C72A C88U C89G A121G U132C here?
**A.** -1.87

**Q.** Which “polymerase ribozyme fitness (log ratio)” value does the source give for G10A C88G A111C here?
**A.** -0.763

**Q.** With G10U C20A C40U A46G C62U C82U C114A as the variant, how does the “polymerase ribozyme fitness (log ratio)” value read?
**A.** -3.36

**Q.** For G10C G36A, which “polymerase ribozyme fitness (log ratio)” value is on record?
**A.** -1.22

**Q.** Which “polymerase ribozyme fitness (log ratio)” value does the source give for G10U C98A C123A here?
**A.** -4.36

**Q.** For G10A U96G, which “polymerase ribozyme fitness (log ratio)” value is on record?
**A.** -0.411

**Q.** With G10U G69U as the variant, how does the “polymerase ribozyme fitness (log ratio)” value read?
**A.** 0.293

**Q.** Which “polymerase ribozyme fitness (log ratio)” value does the source give for G10U C13G G45U C56A U87A C94U C124G here?
**A.** -0.526

**Q.** Which “polymerase ribozyme fitness (log ratio)” value does the source give for G10U G39C A46C U116G here?
**A.** -3.17

**Q.** With G10U G35U A66U G69U G93A as the variant, how does the “polymerase ribozyme fitness (log ratio)” value read?
**A.** -5.9

**Q.** For G10U U21G C70A, which “polymerase ribozyme fitness (log ratio)” value is on record?
**A.** -5.22

**Q.** For G10U C13G C80U G135U, which “polymerase ribozyme fitness (log ratio)” value is on record?
**A.** -1.95

**Q.** With G10U G71C G135U as the variant, how does the “polymerase ribozyme fitness (log ratio)” value read?
**A.** -3.12

**Q.** Which “polymerase ribozyme fitness (log ratio)” value does the source give for G10C U32C G52A G69C U112A G128A here?
**A.** -4.78

**Q.** For G10C A27U U87G, which “polymerase ribozyme fitness (log ratio)” value is on record?
**A.** -3.55

**Q.** Which “polymerase ribozyme fitness (log ratio)” value does the source give for G10C A41C G48A A74U C101U here?
**A.** -3.49

**Q.** With G10A G19U G61U as the variant, how does the “polymerase ribozyme fitness (log ratio)” value read?
**A.** -4.88

**Q.** Which “polymerase ribozyme fitness (log ratio)” value does the source give for G10C C62U here?
**A.** -0.917

**Q.** For G10U U112A C114U, which “polymerase ribozyme fitness (log ratio)” value is on record?
**A.** -1.01

**Q.** Which “polymerase ribozyme fitness (log ratio)” value does the source give for G10A G61A here?
**A.** 0.248

**Q.** With G10U C72U C80U as the variant, how does the “polymerase ribozyme fitness (log ratio)” value read?
**A.** -0.683

**Q.** For G10A C97A, which “polymerase ribozyme fitness (log ratio)” value is on record?
**A.** -4.44

**Q.** Which “polymerase ribozyme fitness (log ratio)” value does the source give for G10C A16G A26U C72U C98U C115G here?
**A.** -6.74

**Q.** For G10U U38G U78A G128A, which “polymerase ribozyme fitness (log ratio)” value is on record?
**A.** -3.77

**Q.** Which “polymerase ribozyme fitness (log ratio)” value does the source give for G10U G77A U106G here?
**A.** -2.38

**Q.** For G10U G39U G63U G120A, which “polymerase ribozyme fitness (log ratio)” value is on record?
**A.** -0.0221

**Q.** For G10C C73G C85G, which “polymerase ribozyme fitness (log ratio)” value is on record?
**A.** -2.53

**Q.** With G10U A27G U59A C98U as the variant, how does the “polymerase ribozyme fitness (log ratio)” value read?
**A.** -6.42

**Q.** For G10U C73U U92A C101U C104U, which “polymerase ribozyme fitness (log ratio)” value is on record?
**A.** -3.23

**Q.** Which “polymerase ribozyme fitness (log ratio)” value does the source give for G10C U106C G107C here?
**A.** -5.64

**Q.** With G10C C11G C22G C76U as the variant, how does the “polymerase ribozyme fitness (log ratio)” value read?
**A.** -4.64

**Q.** With G10U U59C A95U C102U as the variant, how does the “polymerase ribozyme fitness (log ratio)” value read?
**A.** -3.58

**Q.** For G10U G110C, which “polymerase ribozyme fitness (log ratio)” value is on record?
**A.** -4.86

**Q.** For G10A U54A A119G, which “polymerase ribozyme fitness (log ratio)” value is on record?
**A.** 1

**Q.** Which “polymerase ribozyme fitness (log ratio)” value does the source give for G10C U38A G63C U130G here?
**A.** -2.42

**Q.** Which “polymerase ribozyme fitness (log ratio)” value does the source give for G10A G48A G63U C82G A91U G117C here?
**A.** -5.31

**Q.** Which “polymerase ribozyme fitness (log ratio)” value does the source give for G10A G52U C72G C99U here?
**A.** -4.47

**Q.** With G10C C15U A41C C53G C89U as the variant, how does the “polymerase ribozyme fitness (log ratio)” value read?
**A.** -3.28

**Q.** With G10C A41C G71C G122A as the variant, how does the “polymerase ribozyme fitness (log ratio)” value read?
**A.** -2.21

**Q.** Which “polymerase ribozyme fitness (log ratio)” value does the source give for G10C G36A G71A here?
**A.** -2.47

**Q.** Which “polymerase ribozyme fitness (log ratio)” value does the source give for G10A G60C C124A here?
**A.** 1.12

**Q.** With G10C A37C A66U as the variant, how does the “polymerase ribozyme fitness (log ratio)” value read?
**A.** -2.37

**Q.** With G10C A43G G44C C49U G52C C56G G77A as the variant, how does the “polymerase ribozyme fitness (log ratio)” value read?
**A.** -6.25

**Q.** Which “polymerase ribozyme fitness (log ratio)” value does the source give for G10U A43U G45C U78A here?
**A.** -2.4

**Q.** With G10C C15G G69C as the variant, how does the “polymerase ribozyme fitness (log ratio)” value read?
**A.** -4.46

**Q.** Which “polymerase ribozyme fitness (log ratio)” value does the source give for G10A G45U here?
**A.** -1.26

**Q.** For G10C U38G G42C A121U, which “polymerase ribozyme fitness (log ratio)” value is on record?
**A.** -1.8

**Q.** With G10U G60C G69U A108G as the variant, how does the “polymerase ribozyme fitness (log ratio)” value read?
**A.** -4.87

**Q.** Which “polymerase ribozyme fitness (log ratio)” value does the source give for G10U G63U here?
**A.** -1.31

**Q.** For G10U A103G, which “polymerase ribozyme fitness (log ratio)” value is on record?
**A.** -6.29

**Q.** Which “polymerase ribozyme fitness (log ratio)” value does the source give for G10C C89U U129C here?
**A.** -2.54

**Q.** With G10U C49U as the variant, how does the “polymerase ribozyme fitness (log ratio)” value read?
**A.** -0.491

**Q.** For G10U G61A C123A U126G, which “polymerase ribozyme fitness (log ratio)” value is on record?
**A.** -1.39

**Q.** For G10C U14C C15U C94U C97U U112A, which “polymerase ribozyme fitness (log ratio)” value is on record?
**A.** -1.07

**Q.** With G10U C94U as the variant, how does the “polymerase ribozyme fitness (log ratio)” value read?
**A.** -0.599

**Q.** For G10C C49U C94U, which “polymerase ribozyme fitness (log ratio)” value is on record?
**A.** -1.58

**Q.** Which “polymerase ribozyme fitness (log ratio)” value does the source give for G10A U33C C86A A111U here?
**A.** -6.34

**Q.** For G10A G110A, which “polymerase ribozyme fitness (log ratio)” value is on record?
**A.** -1.12

**Q.** For G10A G52C, which “polymerase ribozyme fitness (log ratio)” value is on record?
**A.** -0.471

**Q.** Which “polymerase ribozyme fitness (log ratio)” value does the source give for G10U G44C C88U A105G G120C here?
**A.** -3.52

**Q.** With G10U C53A C56A G61U A90C as the variant, how does the “polymerase ribozyme fitness (log ratio)” value read?
**A.** -5.6

**Q.** Which “polymerase ribozyme fitness (log ratio)” value does the source give for G10C G60U G135C here?
**A.** -0.497

**Q.** For G10A G61C U87A C123A, which “polymerase ribozyme fitness (log ratio)” value is on record?
**A.** -0.382
